The values that follow come from patent publication US12679878B2, “CRF2 receptor agonists and their use in therapy” (SANOFI, priority 2020, dated 2026).

The test system of test [1] is rat CRF2R α receptor. In words: cAMP agonism at rat CRF2R α receptor in A7R5 rat aortic smooth muscle cells (Example 8). The format is cell-based. Conditions: cAMP HTRF, A7R5 rat aortic smooth muscle cell line, 0% HSA. The procedure:
Cells were grown in a T175 culture flask placed at 37° C. to near confluence in medium (DMEM/10% FBS) and collected in 2 ml vials in cell culture medium containing 10% DMSO in a concentration of 10-50 million cells/ml. Each vial contained 1.8 ml cells. The vials were slowly frozen to −80° C. in isopropanol and then transferred in liquid nitrogen for storage. Prior to use, frozen cells were thawed quickly at 37° C. and washed (5 min at 900 rpm) with 20 ml cell buffer (1×HBSS; 20 mM HEPES; 0% or 0.1% HSA). Cells were resuspended in assay buffer (cell buffer plus 2 mM IBMX) and adjusted to a cell density of 1 million cells/ml. For measurement, 5 μl cells (final […]) and 5 μL of test compound were added to a 384-well plate, followed by incubation for 30 minutes at room temperature.
The CAMP content of cells was determined using a kit from Cisbio Corp. (cat. no. 62AM4PEC) based on HTRF (Homogenous Time Resolved Fluorescence). After addition of HTRF reagents diluted in lysis buffer (kit components), the plates were incubated for 1 h, followed by measurement of the fluorescence ratio at 665/620 nm. The percent activity value (E %) was calculated by setting 1000 nM of urocortin 2 (UCN2) as 100%. The in vitro potency of the compounds was quantified by determining the concentrations that caused 50% activation of maximal response (EC50).
Using the procedure described in Example 7, the activity of the compounds at the rat CRF2R α receptor was assessed. The A7R5 rat aortic smooth muscle cell line was used in this study.
Background: TR-FRET usually uses a lanthanide donor and a delayed reading to cut background.

The target in test [2] is T1, anti-target CRF1R receptor (UniProt P34998 24-415, limits assumed).
T1 sequence (looked up): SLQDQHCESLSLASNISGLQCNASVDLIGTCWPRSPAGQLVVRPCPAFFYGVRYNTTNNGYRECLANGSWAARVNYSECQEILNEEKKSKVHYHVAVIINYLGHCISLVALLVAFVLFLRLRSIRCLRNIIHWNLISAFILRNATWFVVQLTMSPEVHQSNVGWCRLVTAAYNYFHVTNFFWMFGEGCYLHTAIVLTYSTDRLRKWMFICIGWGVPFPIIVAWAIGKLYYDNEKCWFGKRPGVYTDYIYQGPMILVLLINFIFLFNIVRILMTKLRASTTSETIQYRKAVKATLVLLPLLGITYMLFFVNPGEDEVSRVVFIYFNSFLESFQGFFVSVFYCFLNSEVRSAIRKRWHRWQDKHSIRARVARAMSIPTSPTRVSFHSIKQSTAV
In words: cell-based or functional assay.

Test [3] deals with rat CRF2R α receptor (rat, UniProt P47866 20-411). In words: cell-based or functional assay.

Starred links: 1 amine or outer side, 2 acyl side, 3 side chain; linkers in the order of their positions; H or OH if unused. Non-standard residues stand in square brackets, D forms with d. Residues, ends and D or L forms follow the SMILES beside them. Groups on a side chain read outwards from the residue. *: point of attachment. C18 diacid = O=C(O)CCCCCCCCCCCCCCCCC(=O)*; γGlu = O=C(O)[C@H](CCC(=O)[*:2])N[*:1]; AEEA = NCCOCCOCC(=O)O; Aib = CC(C)(N)C(=O)O Some results are limits rather than exact numbers.

Sequence of rat CRF2R α receptor (rat, UniProt P47866 20-411) (P47866 20-411): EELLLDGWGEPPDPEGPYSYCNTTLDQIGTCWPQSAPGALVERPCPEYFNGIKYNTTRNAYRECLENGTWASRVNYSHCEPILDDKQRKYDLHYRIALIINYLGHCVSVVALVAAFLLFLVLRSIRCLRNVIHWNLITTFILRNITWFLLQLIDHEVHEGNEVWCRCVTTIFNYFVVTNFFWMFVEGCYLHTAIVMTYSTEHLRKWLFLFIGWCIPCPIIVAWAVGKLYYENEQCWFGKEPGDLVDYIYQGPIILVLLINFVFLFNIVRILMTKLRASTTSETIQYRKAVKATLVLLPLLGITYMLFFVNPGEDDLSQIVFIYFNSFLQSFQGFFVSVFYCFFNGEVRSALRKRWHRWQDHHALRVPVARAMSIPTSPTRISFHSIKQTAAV

In the case of `CC[C@H](C)[C@H](NC(C)=O)C(=O)N[C@H](C(=O)N[C@@H](CC(C)C)C(=O)N[C@@H](CO)C(=O)N[C@@H](CC(C)C)C(=O)N[C@@H](CC(=O)O)C(=O)N[C@@H](C(=O)N1CCC[C@H]1C(=O)N[C@H](C(=O)N[C@@H](CCC(=O)O)C(=O)N[C@@H](CC(C)C)C(=O)N[C@@H](CCCCNC(=O)COCCOCCNC(=O)COCCOCCNC(=O)CC[C@H](NC(=O)CCCCCCCCCCCCCCCCC(=O)O)C(=O)O)C(=O)N[C@@H](CCC(N)=O)C(=O)N[C@H](C(=O)N[C@@H](CC(C)C)C(=O)N[C@@H](CC(C)C)C(=O)N[C@@H](CCC(=O)O)C(=O)N[C@@H](CCC(N)=O)C(=O)N[C@@H](CCC(=O)O)C(=O)N[C@@H](CCCNC(=N)N)C(=O)N[C@@H](CCC(N)=O)C(=O)N[C@@H](CCCCN)C(=O)NC(C)(C)C(=O)N[C@@H](CCC(N)=O)C(=O)N[C@@H](CCCNC(=N)N)C(=O)N[C@@H](CCC(=O)O)C(=O)N[C@@H](CCC(N)=O)C(=O)N[C@@H](C)C(=O)N[C@@H](CCC(=O)O)C(=O)N[C@@H](CCCCN)C(=O)N[C@@H](CC(N)=O)C(=O)N[C@@H](CCCCN)C(=O)N[C@@H](CCC(N)=O)C(=O)N[C@H](C(=O)N[C@@H](CC(C)C)C(=O)N[C@@H](CCC(=O)O)C(=O)N[C@@H](CCC(N)=O)C(=O)N[C@H](C(N)=O)C(C)C)[C@@H](C)CC)[C@@H](C)CC)[C@@H](C)CC)C(C)C)C(C)C` [compound 162] (Ac-IVLSLD[dV]PIELK([AEEA-AEEA-γGlu-C18 diacid])QILLEQERQK[Aib]QREQAEKNKQILEQV-NH2), the midpoint of the response in the test with rat CRF2R α receptor [1], the EC50, lay at 48.6 nM.

B1: peptide of SEQ ID NO: 164 (peptide)
peptide: Ac-IVLSLD[dV]PIGLK([AEEA-AEEA-γGlu-C18 diacid])QILLEQERQK[Aib]QREQAEKNKQILEQV-NH2
SMILES: CC[C@H](C)[C@H](NC(C)=O)C(=O)N[C@H](C(=O)N[C@@H](CC(C)C)C(=O)N[C@@H](CO)C(=O)N[C@@H](CC(C)C)C(=O)N[C@@H](CC(=O)O)C(=O)N[C@@H](C(=O)N1CCC[C@H]1C(=O)N[C@H](C(=O)NCC(=O)N[C@@H](CC(C)C)C(=O)N[C@@H](CCCCNC(=O)COCCOCCNC(=O)COCCOCCNC(=O)CC[C@H](NC(=O)CCCCCCCCCCCCCCCCC(=O)O)C(=O)O)C(=O)N[C@@H](CCC(N)=O)C(=O)N[C@H](C(=O)N[C@@H](CC(C)C)C(=O)N[C@@H](CC(C)C)C(=O)N[C@@H](CCC(=O)O)C(=O)N[C@@H](CCC(N)=O)C(=O)N[C@@H](CCC(=O)O)C(=O)N[C@@H](CCCNC(=N)N)C(=O)N[C@@H](CCC(N)=O)C(=O)N[C@@H](CCCCN)C(=O)NC(C)(C)C(=O)N[C@@H](CCC(N)=O)C(=O)N[C@@H](CCCNC(=N)N)C(=O)N[C@@H](CCC(=O)O)C(=O)N[C@@H](CCC(N)=O)C(=O)N[C@@H](C)C(=O)N[C@@H](CCC(=O)O)C(=O)N[C@@H](CCCCN)C(=O)N[C@@H](CC(N)=O)C(=O)N[C@@H](CCCCN)C(=O)N[C@@H](CCC(N)=O)C(=O)N[C@H](C(=O)N[C@@H](CC(C)C)C(=O)N[C@@H](CCC(=O)O)C(=O)N[C@@H](CCC(N)=O)C(=O)N[C@H](C(N)=O)C(C)C)[C@@H](C)CC)[C@@H](C)CC)[C@@H](C)CC)C(C)C)C(C)C
Consider B1, for which, in test [2], the “EC50[nM] 0% HSA (cAMP, CRF1R-overexpression CHO cells)” value (from here on “EC50[nM] 0% HSA”) was > 1000 nM and the “Emax (%) (cAMP, CRF1R-overexpression CHO cells)” value (from here on “Emax (%)”) is 25.8%. The “EC50 [nM], 0% HSA (cAMP, A7R5 cells)” value in the test with rat CRF2R α receptor [3] stood at 12.6 nM.

B2: peptide of SEQ ID NO: 166 (peptide)
peptide: Ac-IVLSLD[dV]PIKLK([AEEA-AEEA-γGlu-C18 diacid])QILLEQERQK[Aib]QREQAEKNEQILEQV-NH2
SMILES: CC[C@H](C)[C@H](NC(C)=O)C(=O)N[C@H](C(=O)N[C@@H](CC(C)C)C(=O)N[C@@H](CO)C(=O)N[C@@H](CC(C)C)C(=O)N[C@@H](CC(=O)O)C(=O)N[C@@H](C(=O)N1CCC[C@H]1C(=O)N[C@H](C(=O)N[C@@H](CCCCN)C(=O)N[C@@H](CC(C)C)C(=O)N[C@@H](CCCCNC(=O)COCCOCCNC(=O)COCCOCCNC(=O)CC[C@H](NC(=O)CCCCCCCCCCCCCCCCC(=O)O)C(=O)O)C(=O)N[C@@H](CCC(N)=O)C(=O)N[C@H](C(=O)N[C@@H](CC(C)C)C(=O)N[C@@H](CC(C)C)C(=O)N[C@@H](CCC(=O)O)C(=O)N[C@@H](CCC(N)=O)C(=O)N[C@@H](CCC(=O)O)C(=O)N[C@@H](CCCNC(=N)N)C(=O)N[C@@H](CCC(N)=O)C(=O)N[C@@H](CCCCN)C(=O)NC(C)(C)C(=O)N[C@@H](CCC(N)=O)C(=O)N[C@@H](CCCNC(=N)N)C(=O)N[C@@H](CCC(=O)O)C(=O)N[C@@H](CCC(N)=O)C(=O)N[C@@H](C)C(=O)N[C@@H](CCC(=O)O)C(=O)N[C@@H](CCCCN)C(=O)N[C@@H](CC(N)=O)C(=O)N[C@@H](CCC(=O)O)C(=O)N[C@@H](CCC(N)=O)C(=O)N[C@H](C(=O)N[C@@H](CC(C)C)C(=O)N[C@@H](CCC(=O)O)C(=O)N[C@@H](CCC(N)=O)C(=O)N[C@H](C(N)=O)C(C)C)[C@@H](C)CC)[C@@H](C)CC)[C@@H](C)CC)C(C)C)C(C)C
B2: in test [2], the “EC50[nM] 0% HSA” value was > 1000 nM and the “Emax (%)” value was 5.94%. The “EC50 [nM], 0% HSA (cAMP, A7R5 cells)” value with rat CRF2R α receptor [3] was determined as 9.99 nM.

B3: peptide of SEQ ID NO: 165 (peptide)
peptide: Ac-IVLSLD[dV]PIKLK([AEEA-AEEA-γGlu-C18 diacid])QILLEQARQK[Aib]QREQAEKNEQILEQV-NH2
SMILES: CC[C@H](C)[C@H](NC(C)=O)C(=O)N[C@H](C(=O)N[C@@H](CC(C)C)C(=O)N[C@@H](CO)C(=O)N[C@@H](CC(C)C)C(=O)N[C@@H](CC(=O)O)C(=O)N[C@@H](C(=O)N1CCC[C@H]1C(=O)N[C@H](C(=O)N[C@@H](CCCCN)C(=O)N[C@@H](CC(C)C)C(=O)N[C@@H](CCCCNC(=O)COCCOCCNC(=O)COCCOCCNC(=O)CC[C@H](NC(=O)CCCCCCCCCCCCCCCCC(=O)O)C(=O)O)C(=O)N[C@@H](CCC(N)=O)C(=O)N[C@H](C(=O)N[C@@H](CC(C)C)C(=O)N[C@@H](CC(C)C)C(=O)N[C@@H](CCC(=O)O)C(=O)N[C@@H](CCC(N)=O)C(=O)N[C@@H](C)C(=O)N[C@@H](CCCNC(=N)N)C(=O)N[C@@H](CCC(N)=O)C(=O)N[C@@H](CCCCN)C(=O)NC(C)(C)C(=O)N[C@@H](CCC(N)=O)C(=O)N[C@@H](CCCNC(=N)N)C(=O)N[C@@H](CCC(=O)O)C(=O)N[C@@H](CCC(N)=O)C(=O)N[C@@H](C)C(=O)N[C@@H](CCC(=O)O)C(=O)N[C@@H](CCCCN)C(=O)N[C@@H](CC(N)=O)C(=O)N[C@@H](CCC(=O)O)C(=O)N[C@@H](CCC(N)=O)C(=O)N[C@H](C(=O)N[C@@H](CC(C)C)C(=O)N[C@@H](CCC(=O)O)C(=O)N[C@@H](CCC(N)=O)C(=O)N[C@H](C(N)=O)C(C)C)[C@@H](C)CC)[C@@H](C)CC)[C@@H](C)CC)C(C)C)C(C)C
As for B3, in test [2], the “EC50[nM] 0% HSA” value is > 1000 nM and the “Emax (%)” value came to 26.9%. Moreover, the “EC50 [nM], 0% HSA (cAMP, A7R5 cells)” value in the test with rat CRF2R α receptor [3] was found to be 2.41 nM.

B4: peptide of SEQ ID NO: 167 (peptide)
peptide: Ac-IVLSLD[dV]PIGLK([AEEA-AEEA-γGlu-C18 diacid])QILLEQERQK[Aib]QREQAEKNEQILEQV-NH2
SMILES: CC[C@H](C)[C@H](NC(C)=O)C(=O)N[C@H](C(=O)N[C@@H](CC(C)C)C(=O)N[C@@H](CO)C(=O)N[C@@H](CC(C)C)C(=O)N[C@@H](CC(=O)O)C(=O)N[C@@H](C(=O)N1CCC[C@H]1C(=O)N[C@H](C(=O)NCC(=O)N[C@@H](CC(C)C)C(=O)N[C@@H](CCCCNC(=O)COCCOCCNC(=O)COCCOCCNC(=O)CC[C@H](NC(=O)CCCCCCCCCCCCCCCCC(=O)O)C(=O)O)C(=O)N[C@@H](CCC(N)=O)C(=O)N[C@H](C(=O)N[C@@H](CC(C)C)C(=O)N[C@@H](CC(C)C)C(=O)N[C@@H](CCC(=O)O)C(=O)N[C@@H](CCC(N)=O)C(=O)N[C@@H](CCC(=O)O)C(=O)N[C@@H](CCCNC(=N)N)C(=O)N[C@@H](CCC(N)=O)C(=O)N[C@@H](CCCCN)C(=O)NC(C)(C)C(=O)N[C@@H](CCC(N)=O)C(=O)N[C@@H](CCCNC(=N)N)C(=O)N[C@@H](CCC(=O)O)C(=O)N[C@@H](CCC(N)=O)C(=O)N[C@@H](C)C(=O)N[C@@H](CCC(=O)O)C(=O)N[C@@H](CCCCN)C(=O)N[C@@H](CC(N)=O)C(=O)N[C@@H](CCC(=O)O)C(=O)N[C@@H](CCC(N)=O)C(=O)N[C@H](C(=O)N[C@@H](CC(C)C)C(=O)N[C@@H](CCC(=O)O)C(=O)N[C@@H](CCC(N)=O)C(=O)N[C@H](C(N)=O)C(C)C)[C@@H](C)CC)[C@@H](C)CC)[C@@H](C)CC)C(C)C)C(C)C
For the molecule B4, in test [2], the “EC50[nM] 0% HSA” value is > 1000 nM and the “Emax (%)” value was -0.46%. Also, the “EC50 [nM], 0% HSA (cAMP, A7R5 cells)” value with rat CRF2R α receptor [3] was 76.9 nM.
